Assay results published in patent US20090291890A1 (published 2009).
Where a chain is given by its changes, count along the chain named. In names and notes the source's numbering stands.

B1: FVIIa variant Q286R/M298Q/K341Q (enzyme)
chain: ANAFLEELRPGSLERECKEEQCSFEEAREIFKDAERTKLFWISYSDGDQCASSPCQNGGSCKDQLQSYICFCLPAFEGRNCETHKDDQLICVNENGGCEQYCSDHTGTKRSCRCHEGYSLLADGVSCTPTVEYPCGKIPILEKRNASKPQGRIVGGKVCPKGECPWQVLLLVNGAQLCGGTLINTIWVVSAAHCFDKIKNWRNLIAVLGEHDLSEHDGDEQSRRVAQVIIPSTYVPGTTNHDIALLRLHQPVVLTDHVVPLCLPERTFSERTLAFVRFSLVSGWGRLLDRGATALELQVLNVPRLMTQDCLQQSRKVGDSPNITEYMFCAGYSDGSKDSCQGDSGGPHATHYRGTWYLTGIVSWGQGCATVGHFGVYTRVSQYIEWLQKLMRSEPRPGVLLRAPFP
B2: FVIIa variant S222A/H257A (enzyme)
chain: B1 chain with S222A, H257A, R286Q, Q298M, Q341K
B3: FVIIa variant Q366M (enzyme)
chain: B1 chain with R286Q, Q298M, Q341K, Q366M
B4: FVIIa variant Q286R/Q366N (enzyme)
chain: B1 chain with Q298M, Q341K, Q366N
B5: FVIIa variant T239H (enzyme)
chain: B1 chain with T239H, R286Q, Q298M, Q341K
B6: FVIIa variant S222A/H257A/Q286R/Q366V (enzyme)
chain: B1 chain with S222A, H257A, Q298M, Q341K, Q366V
B7: FVIIa variant Q366V/H373L (enzyme)
chain: B1 chain with R286Q, Q298M, Q341K, Q366V, H373L
B8: FVIIa variant T239I (enzyme)
chain: B1 chain with T239I, R286Q, Q298M, Q341K
B9: FVIIa variant S222E (enzyme)
chain: B1 chain with S222E, R286Q, Q298M, Q341K
B10: FVIIa variant Q286Y (enzyme)
chain: B1 chain with R286Y, Q298M, Q341K
B11: FVIIa variant Q366L (enzyme)
chain: B1 chain with R286Q, Q298M, Q341K, Q366L
B12: FVIIa variant S222A/H373A (enzyme)
chain: B1 chain with S222A, R286Q, Q298M, Q341K, H373A
B13: FVIIa variant H257S/Q286R (enzyme)
chain: B1 chain with H257S, Q298M, Q341K
B14: FVIIa variant Q286R/Q366D (enzyme)
chain: B1 chain with Q298M, Q341K, Q366D
B15: FVIIa variant S222A/H257A/M298Q (enzyme)
chain: B1 chain with S222A, H257A, R286Q, Q341K
B16: FVIIa variant H216A/H257A (enzyme)
chain: B1 chain with H216A, H257A, R286Q, Q298M, Q341K
B17: FVIIa variant Q286R/K341D (enzyme)
chain: B1 chain with Q298M, Q341D
B18: FVIIa variant Q286R/H373A (enzyme)
chain: B1 chain with Q298M, Q341K, H373A
B19: FVIIa variant Q366V/H373V (enzyme)
chain: B1 chain with R286Q, Q298M, Q341K, Q366V, H373V
B20: FVIIa variant Q286L (enzyme)
chain: B1 chain with R286L, Q298M, Q341K
B21: FVIIa variant T239S (enzyme)
chain: B1 chain with T239S, R286Q, Q298M, Q341K
B22: FVIIa variant S222A/H257A/Q286R/M298Q (enzyme)
chain: B1 chain with S222A, H257A, Q341K
B23: FVIIa variant Q286M (enzyme)
chain: B1 chain with R286M, Q298M, Q341K
B24: FVIIa variant A175S/Q286R/Q366V (enzyme)
chain: B1 chain with A175S, Q298M, Q341K, Q366V
B25: FVIIa variant S222V (enzyme)
chain: B1 chain with S222V, R286Q, Q298M, Q341K
B26: FVIIa variant Q366I (enzyme)
chain: B1 chain with R286Q, Q298M, Q341K, Q366I
B27: FVIIa variant Q286R/M298Q/K199E (enzyme)
chain: B1 chain with K199E, Q341K
B28: FVIIa variant A175S/S222A/Q366V (enzyme)
chain: B1 chain with A175S, S222A, R286Q, Q298M, Q341K, Q366V
B29: FVIIa variant S222A/Q286R/Q366V (enzyme)
chain: B1 chain with S222A, Q298M, Q341K, Q366V
B30: FVIIa variant T239L (enzyme)
chain: B1 chain with T239L, R286Q, Q298M, Q341K
B31: FVIIa variant Q286R/M298Q/Q366D (enzyme)
chain: B1 chain with Q341K, Q366D
B32: FVIIa variant H216A/S222A (enzyme)
chain: B1 chain with H216A, S222A, R286Q, Q298M, Q341K
B33: FVIIa variant T239V (enzyme)
chain: B1 chain with T239V, R286Q, Q298M, Q341K
B34: FVIIa variant H257S/Q286R/Q366V (enzyme)
chain: B1 chain with H257S, Q298M, Q341K, Q366V
B35: FVIIa variant S222D (enzyme)
chain: B1 chain with S222D, R286Q, Q298M, Q341K
B36: FVIIa variant H257S/Q366V (enzyme)
chain: B1 chain with H257S, R286Q, Q298M, Q341K, Q366V
B37: FVIIa variant Q286R/M298Q/K341D (enzyme)
chain: B1 chain with Q341D
B38: FVIIa variant S222N (enzyme)
chain: B1 chain with S222N, R286Q, Q298M, Q341K
B39: FVIIa variant T239Q (enzyme)
chain: B1 chain with T239Q, R286Q, Q298M, Q341K

Target: Factor X (FX) (Homo sapiens (Human)) (UniProt P00742)
Sequence (P00742 41-488 limits assumed): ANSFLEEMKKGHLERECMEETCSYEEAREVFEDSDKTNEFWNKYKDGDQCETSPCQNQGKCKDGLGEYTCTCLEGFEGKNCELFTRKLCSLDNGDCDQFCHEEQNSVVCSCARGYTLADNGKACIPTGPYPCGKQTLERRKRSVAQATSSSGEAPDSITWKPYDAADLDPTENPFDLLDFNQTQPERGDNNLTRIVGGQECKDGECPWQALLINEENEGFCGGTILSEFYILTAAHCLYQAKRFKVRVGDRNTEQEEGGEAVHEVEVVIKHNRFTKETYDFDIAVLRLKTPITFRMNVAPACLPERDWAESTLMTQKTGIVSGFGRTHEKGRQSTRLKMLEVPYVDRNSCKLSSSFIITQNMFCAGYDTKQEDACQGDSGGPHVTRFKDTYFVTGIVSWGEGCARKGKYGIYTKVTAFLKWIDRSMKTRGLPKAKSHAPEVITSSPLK

Row | Binder | kcat/KM, TF-Dependent Indirect Assay [M⁻¹ s⁻¹]
1 | B1 | 3.93e+07
2 | B2 | 5.02e+07
3 | B3 | 6.61e+07
4 | B4 | 5.42e+07
5 | B5 | 9.9e+06
6 | B6 | 1.86e+08
7 | B7 | 3.07e+07
8 | B8 | 3.5e+07
9 | B9 | 5.48e+07
10 | B10 | 1.61e+07
11 | B11 | 6.87e+07
12 | B12 | 3.64e+07
13 | B13 | 3.93e+07
14 | B14 | 1.53e+07
15 | B15 | 7.75e+07
16 | B16 | 6.62e+07
17 | B17 | 1.11e+07
18 | B18 | 5.89e+07
19 | B19 | 1.84e+07
20 | B20 | 2.02e+07

Row | Binder | kcat/KM, TF-Dependent Indirect Assay [M⁻¹ s⁻¹]
21 | B21 | 1.74e+07
22 | B22 | 2e+08
23 | B23 | 5.25e+07
24 | B24 | 8.08e+07
25 | B25 | 6.04e+07
26 | B26 | 9.37e+07
27 | B27 | 7.74e+07
28 | B28 | 3.78e+07
29 | B29 | 1.27e+08
30 | B30 | 3.77e+07
31 | B31 | 1.91e+07
32 | B32 | 5.46e+07
33 | B33 | 9.57e+07
34 | B34 | 1.58e+08
35 | B35 | 5.34e+07
36 | B36 | 6.71e+07
37 | B37 | 1.18e+07
38 | B38 | 6.82e+07
39 | B39 | 1.74e+07
